In patent US20210261685A1 (Alector, published 2021):
Numbering of substitutions follows the chain as printed.

T1: murine MerTK overexpressed on CHO cells (CHO-muMerTK OE cells) (mouse, UniProt Q60805 19-994)
T1 construct: whole, on cells
T1 sequence (looked up): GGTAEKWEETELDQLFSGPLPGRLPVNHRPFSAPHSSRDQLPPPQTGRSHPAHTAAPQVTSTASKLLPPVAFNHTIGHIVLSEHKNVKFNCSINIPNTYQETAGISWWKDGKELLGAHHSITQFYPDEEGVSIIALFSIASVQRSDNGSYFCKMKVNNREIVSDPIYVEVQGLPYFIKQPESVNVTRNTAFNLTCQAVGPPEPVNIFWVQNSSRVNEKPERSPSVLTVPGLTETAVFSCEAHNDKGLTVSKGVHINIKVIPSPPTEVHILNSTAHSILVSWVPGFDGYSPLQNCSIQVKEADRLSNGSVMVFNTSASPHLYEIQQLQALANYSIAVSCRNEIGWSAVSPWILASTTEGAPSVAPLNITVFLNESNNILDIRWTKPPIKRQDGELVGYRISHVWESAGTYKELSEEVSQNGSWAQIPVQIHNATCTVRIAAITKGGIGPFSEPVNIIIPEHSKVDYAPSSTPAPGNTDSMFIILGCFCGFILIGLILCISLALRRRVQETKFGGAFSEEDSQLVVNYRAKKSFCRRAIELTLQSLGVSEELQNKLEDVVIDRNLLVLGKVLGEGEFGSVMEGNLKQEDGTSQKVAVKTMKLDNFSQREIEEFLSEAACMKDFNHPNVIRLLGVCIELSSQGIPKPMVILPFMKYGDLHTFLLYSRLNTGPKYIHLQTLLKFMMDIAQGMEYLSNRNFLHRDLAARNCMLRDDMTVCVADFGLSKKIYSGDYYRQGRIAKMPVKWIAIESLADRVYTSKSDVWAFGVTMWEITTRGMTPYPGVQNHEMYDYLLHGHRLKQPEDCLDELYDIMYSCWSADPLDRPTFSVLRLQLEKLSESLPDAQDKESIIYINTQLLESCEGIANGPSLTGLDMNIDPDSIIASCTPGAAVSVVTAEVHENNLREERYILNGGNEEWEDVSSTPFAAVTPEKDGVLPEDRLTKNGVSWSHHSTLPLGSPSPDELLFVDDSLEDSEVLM

T2: human MerTK endogenously expressed on cells (SK-MEL-5 cells; human macrophages) (human, UniProt Q12866 21-999)
T2 construct: also called MerTK on SK-MEL-5
T2 sequence: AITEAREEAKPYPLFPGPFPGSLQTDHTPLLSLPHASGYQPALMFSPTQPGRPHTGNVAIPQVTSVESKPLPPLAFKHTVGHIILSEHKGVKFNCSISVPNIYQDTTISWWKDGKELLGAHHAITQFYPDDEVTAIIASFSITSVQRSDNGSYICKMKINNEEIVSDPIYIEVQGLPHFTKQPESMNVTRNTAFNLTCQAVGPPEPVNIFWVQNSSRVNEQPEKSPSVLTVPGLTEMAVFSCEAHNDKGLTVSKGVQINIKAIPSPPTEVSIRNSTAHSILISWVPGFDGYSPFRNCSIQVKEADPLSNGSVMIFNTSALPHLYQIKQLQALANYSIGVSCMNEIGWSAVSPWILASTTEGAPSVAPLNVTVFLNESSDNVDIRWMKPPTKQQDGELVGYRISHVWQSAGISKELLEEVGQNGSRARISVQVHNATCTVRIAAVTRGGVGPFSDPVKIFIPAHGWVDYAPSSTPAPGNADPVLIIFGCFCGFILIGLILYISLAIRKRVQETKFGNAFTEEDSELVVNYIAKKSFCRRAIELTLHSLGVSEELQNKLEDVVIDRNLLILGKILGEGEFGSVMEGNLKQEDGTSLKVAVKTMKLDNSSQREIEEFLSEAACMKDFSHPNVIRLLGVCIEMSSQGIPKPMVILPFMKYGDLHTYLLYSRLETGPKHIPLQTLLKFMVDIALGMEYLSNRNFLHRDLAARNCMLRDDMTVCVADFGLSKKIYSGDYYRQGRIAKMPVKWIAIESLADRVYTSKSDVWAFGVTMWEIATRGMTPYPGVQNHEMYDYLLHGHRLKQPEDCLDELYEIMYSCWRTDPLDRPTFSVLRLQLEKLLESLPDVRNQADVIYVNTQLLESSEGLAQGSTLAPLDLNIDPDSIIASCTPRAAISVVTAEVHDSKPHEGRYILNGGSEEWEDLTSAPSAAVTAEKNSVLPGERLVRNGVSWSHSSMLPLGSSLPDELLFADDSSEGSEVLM

B1: MTK-33 (antibody, human IgG1, V domains shown)
VH: QVQLQQPGPELVRPGTSVKLSCKASGYTFTSYWMHWIKQRPGQGLEWIGVIDPSDNYINYNQKFKGKATLTVDTSSSTAYLQLSSLTSEDSAVYYCAREAGTRGYFDYWGQGTTLTVSS
VL: SIVMTQTPKFLLVSAGDRVIITCKASQSVSNTVAWYQQKPGQSPKLLIYYASNRYTGVPDRFTGSGYGTDFTFTISTVQAEDLAVYFCQQDYRSPFTFGSGTQLEMK
B2: MTK-24 (antibody, human IgG1, V domains shown)
VH: QVQLQQPGAELVKPGASVKLSCKASGYTFTSYWMHWVKQRPGQGLEWIGMIHPNINTNYNEKFKSKATLTVDISSSTAYMQLSSLTSEDSAVYYCAKRSPYSNYDWYFDVWGTGTTVTVSS
VL: DIQMTQSPASLSVSVGETVTITCRASENIYSNLAWYQQKQGKSPQLLVYAATNLADGVPSRFSGSGSGTQYSLKINSLQSEDFGSYYCQHFWGTPLTFGAGTKLELK
B3: MTK-30 (antibody, human IgG1, V domains shown)
VH: QVQLQQPGTELVRPGASVKLSCKASGYTFTSYWMHWVKQRPGQGLEWIGNLNPNNGGTYYNEKFKSKATLTVDKSSSTAYMQLSSLTSEDSAVYYCARQILLYFDYWGQGTTLTVSS
VL: DVLMTQTPLSLPVSLGDQASISCRSSQSIVHSNGDTYLEWYLQKPGQSPKLLIYKVSNRFSGVPDRFSGSGSGTDFTLKISRVEAEDLGVYYCFQGSHVPWTFGGGTKLEIK
B4: MTK-31 (antibody, human IgG1, V domains shown)
VH: QIQLVQSGPELKKSGETVKISCKASGYTFTSYGMSWVKQAPGKGLKWMGWINTYSGVPTYADDFKGRFAFSLETSASTAYLQINNLKNEDTATYFCASLSYDGSLYHAMDYWGQGTSVTVSS
VL: B3 VL with L3S, C23S, S28T, D35N
B5: MTK-29 (antibody, human IgG1, V domains shown)
VH: QIQLVQSGPELKKPGETVKISCKSSGFTFTTYGMSWVKQAPGKGLKWMGWINTYSGVPTYTDDFKGRFAFSLETSASTASLQINNLKNEDTATYFCARYTNYGYFDYWGQGTTLTVSS
VL: QIVLSQSPAILSASPGEKVTMTCRATSSVGYMHWYQQKPGSSPKPWIYATSNLASGVPARFSGSGSGTSYSLTISRVEAEHAATYYCQQWGSNPFTFGSGTKLEIK
B6: MTK-13 (antibody, human IgG1, V domains shown)
VH: DVQLQESGPGLVKPSQSLSLTCSVTGYSITSGYYWNWIRQFPGNKLEWMGNIDYDGSNKYNPSLKNRISITRDTSKNHFFLKLNSVTPEDTATYFCARDGGNYRSFAYWGQGTLVTVSA
VL: QIVLTQSPPIMSASPGEKVTITCSASSSVSYMYWFQQKPGTSPKLWIYSTFNLASGVPARFSGSGSGTSYSLTISRMEAEDVATYYCQQRSSYPFTFGSGTKLEIK
B7: MTK-10 (antibody, human IgG1, V domains shown)
VH: QVTLKESGPGILQPSQTLSLTCSFSGFSLTTSGMGVGWIRQPSGKGLEWLAHIWSDDDKRSNPALKSRLTISQDSSTNQVFLKIASVDTADSATYYCSHLTPVREFAYWGPGTLVTVSE
VL: DIQMTQTTSSLSASLGDRVTISCSASQGISNYLNWFQQKPDGTVKLLIYYTSRLHSGVPSRFSGSGSGTDFSLTISNLEPEDIATYYCQQYTKLPYTFGGGTKLEIK
B8: MTK-16 (antibody, human IgG1, V domains shown)
VH: LIQLVQSGPELKKPGETVKISCKASGYTFTNHGMNWVKQDPGKGLKWMGWINTYTGEPTYADDFKGRFVFSMETSASAAFLQINNLKNEDTATYFCARKGVTAARYFDYWGQGTTLTVSS
VL: DIVMTQSPKFMSTSVGDRVSITCKASQNVRTAVAWYKKKPGQSPKALINLASNRHTGVPDRFTGSGSGTDFTLTISNVQSEDLADYFCLQHWNYPLTFGGGTKLEIK
B9: MTK-06 (antibody, human IgG1, V domains shown)
VH: QIQLVQSGPELKKPGETVKISCKASGYTFTNYGMNWVKQAPGKGLKWMGWINTNTGEPTYAEEFKGRFAFSLETSASTAYLQINNLKNEDTATYFCARYYNYWYFDVWGAGTTVTVSS
VL: B5 VL with T26S, G30S, H81D, G91S, N93K, F95P, S99G
B10: MTK-15 (antibody, human IgG1, V domains shown)
VH: QIQLVQSGPELKKPGETVKISCKASGYTFTNYGVHWVKQAPGKGLKWMGWINTYTGEPTYADDFKGRFAFSLETSASTAYLQINNLKNEDMATYFCARGNRYAYMDYWGQGTSVTVSS
VL: B5 VL with T26S, G30S, P39S, H81D, G91S, F95R, S99G

Each binder was assayed against T1, murine MerTK overexpressed on CHO cells … (assay: flow cytometry on CHO-muMerTK OE cells, Prism fit).
Procedure: (§1) To determine whether recombinant anti-human MerTK antibodies of the present disclosure bind to human MerTK endogenously expressed on SK-MEL-5 cells and to CHO cells overexpressing mouse MerTK (CHO-muMerTK OE cells), the following experiments were performed. SK-MEL-5 cells and CHO-muMerTK OE cells were plated at 40,000 cells/well. Anti-MerTK antibodies were titrated to a final concentration range of between 66.6 nM to 4 pM and then added to the cells. After 30 min on ice, cells were washed and then stained with APC-conjugated mouse anti-human Kappa antibody (Southern Biotech Cat #9230-11, Birmingham, Ala.) and a viability die (Life Technologies) in the presence of Fc block solution on ice for 30 minutes, and then washed twice with cold FACS buffer (2% FBS in PBS). Cells were fixed with 4% paraformaldehyde in PBS. Stained cells were acquired on a BD FACS Canto II cytometer and the mean fluorescence intensity (MFI) was calculated with FlowJo software and K value was calculated with Prism software. […] A lower Kd value reflects higher binding of antibody to cells.
Work on B1 yielded a Kd of 0.53 nM.
B2 gave a Kd of 0.22 nM.
B3 gave a Kd of 0.24 nM.
For B4, the Kd was 2.91 nM.
In the case of B5, the Kd is reported as 5.22 nM.

Each binder was assayed against T2, human MerTK endogenously expressed on … (assay: flow cytometry on SK-MEL-5 cells (endogenous human MerTK), APC anti-human kappa detection, MFI).
Procedure: as §1
In the case of B6, the “EC50 (read off the curve)” value is reported as roughly 0.6 nM.
B7 was tested, and the “EC50 (read off the curve)” value was roughly 0.3 nM.
B8 was tested, and the “EC50 (read off the curve)” value was roughly 2 nM.
In the case of B9, the “EC50 (read off the curve)” value is reported as roughly 0.2 nM.
For B10, the “EC50 (read off the curve)” value was roughly 0.2 nM.
